Target: T1, HR1 peptide of the PEDV spike glycoprotein (optimal focused HR1 domain) (porcine epidemic diarrhea virus (PEDV))
T1 construct: Spike glycoprotein of porcine epidemic diarrhea virus (PEDV), heptad repeat 1; numbers count on: GenBank ALS35469.1; source: synthetic peptide (China Peptides)
T1 peptide: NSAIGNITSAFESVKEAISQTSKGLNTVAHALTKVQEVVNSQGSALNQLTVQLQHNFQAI
Test: SEC; HR1 and tHR2 mixed, each at 15 uM, incubated 2 h; Superdex G75, 20 mM Tris-HCl pH 8.0; mass estimated against protein standards
Conditions: both partners purified

B1: truncated HR2 peptide tHR2 of the PEDV spike glycoprotein (1278-1316, 39Aa) (peptide)
peptide: LTGEIADLEQRSESLRNTTEELRSLINNINNTLVDLEWL
notes: Spike glycoprotein of porcine epidemic diarrhea virus (PEDV), truncated heptad repeat 2, residues 1278-1316 (39 residues); the predicted HR2 domain is 1263-1314; numbers count on: GenBank ALS35469.1; source: synthetic peptide (China Peptides)
  stoichiometry N: ~1 tHR2 per HR1 (3:3)
